Laboratory results taken from patent publication US20050202008A1 (Genentech, published 2005).

T1: TNFR1 immunoadhesin (human, UniProt P19438 30-211, limits assumed)
T1 construct: extracellular domain; also called TNFR1-IgG; TNFR 1-IgG; not shown: hinge and Fc portion of human IgG
T1 sequence (looked up): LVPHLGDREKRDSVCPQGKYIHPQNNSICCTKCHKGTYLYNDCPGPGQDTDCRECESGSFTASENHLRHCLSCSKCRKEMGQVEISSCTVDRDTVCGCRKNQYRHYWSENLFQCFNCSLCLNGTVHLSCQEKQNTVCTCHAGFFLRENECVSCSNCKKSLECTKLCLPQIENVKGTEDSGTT

T2: DR4 immunoadhesin (human, UniProt O00220 24-239, limits assumed)
T2 construct: extracellular domain; also called DR4-IgG; not shown: hinge and Fc portion of human IgG; made as described for TNFR1 in Ashkenazi et al. 1991 (IgG1 from)
T2 sequence (looked up): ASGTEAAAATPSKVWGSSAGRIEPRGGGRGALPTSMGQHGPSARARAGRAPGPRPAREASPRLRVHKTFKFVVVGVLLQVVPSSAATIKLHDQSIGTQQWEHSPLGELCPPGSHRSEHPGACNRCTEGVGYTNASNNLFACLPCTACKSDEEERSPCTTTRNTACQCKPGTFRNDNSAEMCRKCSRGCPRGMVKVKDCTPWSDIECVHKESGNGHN

T3: Apo-3 immunoadhesin (human, UniProt Q93038 25-199)
T3 construct: extracellular domain; also called Apo-3-IgG; DR3; not shown: hinge and Fc portion of human IgG; made as described for TNFR1 in Ashkenazi et al. 1991 (IgG1 from)
T3 sequence (looked up): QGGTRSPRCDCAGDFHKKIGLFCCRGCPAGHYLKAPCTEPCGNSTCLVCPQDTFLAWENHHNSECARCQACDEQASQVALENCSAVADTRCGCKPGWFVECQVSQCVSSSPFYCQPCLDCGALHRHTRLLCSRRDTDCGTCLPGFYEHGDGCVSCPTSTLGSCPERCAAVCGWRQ

T4: TNFR2 immunoadhesin (human, UniProt P20333 23-257, limits assumed)
T4 construct: extracellular domain; also called TNFR2-IgG; not shown: hinge and Fc portion of human IgG; made as described for TNFR1 in Ashkenazi et al. 1991 (IgG1 from)
T4 sequence (looked up): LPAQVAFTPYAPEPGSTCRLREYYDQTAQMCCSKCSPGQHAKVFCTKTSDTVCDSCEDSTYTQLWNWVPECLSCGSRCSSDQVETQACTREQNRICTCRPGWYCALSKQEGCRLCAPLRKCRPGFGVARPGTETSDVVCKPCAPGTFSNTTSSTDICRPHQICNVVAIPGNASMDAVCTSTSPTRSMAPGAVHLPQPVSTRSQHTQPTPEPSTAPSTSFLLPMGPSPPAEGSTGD

B1: PRO364-IgG (soluble immunoglobulin fusion protein of the PRO364 extracellular domain) (Fc fusion)
chain: QRPTGGPGCGPGRLLLGTGTDARCCRVHTTRCCRDYPGEECCSEWDCMCVQPEFHCGDPCCTTCRHHPCPPGQGVQSQGKFSFGFQCIDCASGTFSGGHEGHCKPWTDCTQFGFLTVFPGNKTHNAVCVPGSPPAE
notes: Expressed in insect cells with Baculovirus; also called PRO364 immunoadhesin; PRO364 ECD C-terminus IgG-Fc tagged form; not shown: IgG-Fc at the C-terminus
B2: full-length PRO175 polypeptide on cells (ligand)
chain: MCLSHLENMPLSHSRTQGAQRSSWKLWLFCSIVMLLFLCSFSWLIFIFLQLETAKEPCMAKFGPLPSKWQMASSEPPCVNKVSDWKLEILQNGLYLIYGQVAPNANYNDVAPFEVRLYKNKDMIQTLTNKSKIQNVGGTYELHVGDTIDLIFNSEHQVLKNNTYWGIILLANPQFIS
notes: Human 293 cells were transiently transfected with full-length PRO175, co-transfected with CD4 for gating; also called PRO175 on transfected 293 cells; PRO175 on HUVEC
B3: soluble PRO175 polypeptide (PRO175 ECD, E. coli, Met-Gly-His10-enterokinase-site tagged) (ligand)
chain: MGHHHHHHHHHHSSGHIDDDDKHMETAKEPCMAKFGPLPSKWQMASSEPPCVNKVSDWKLEILQNGLYLIYGQVAPNANYNDVAPFEVRLYKNKDMIQTLTNKSKIQNVGGTYELHVGDTIDLIFNSEHQVLKNNTYWGIILLANPQFIS
modifications: labeled with 125I (residues not stated)
notes: also called soluble PRO175 ECD molecule; radioiodinated soluble PRO175 polypeptide
B4: CD95 immunoadhesin (Fc fusion, UniProt P25445 26-173, looked up)
chain: QVTDINSKGLELRKTVTTVETQNLEGLHHDGQFCHKPCPPGERKARDCTVNGDEPDCVPCQEGKEYTDKAHFSSKCRRCRLCDEGHGLEVEINCTRTQNTKCRCKPNFFCNSTVCEHCDPCTKCEHGIIKECTLTSNTKCKEEGSRSN
notes: extracellular domain; also called CD95-IgG; Fas-IgG; not shown: hinge and Fc portion of human IgG; made as described for TNFR1 in Ashkenazi et al. 1991 (IgG1 from)

Experiments:
[1] = biological target: B2; test: FACS on 293 cells transiently transfected with full-length PRO175
Description: In another assay, human 293 cells were transiently transfected with full-length PRO175 and the ability of receptor immunoadhesin constructs for PRO364, TNFR1, HVEM, and DcR1 to bind to those transfected cells was determined by FACS analysis. The 293 cells were maintained in high glucose DMEM media supplemented with 10% fetal bovine serum (FBS), 2 mM glutamine, 100 microgram/ml penicillin, and 100 microgram/ml streptomycin. The transfected cells ([…]) were incubated for 60 minutes at 4° C. in 200 microliters 2% FBS/PBS with 1 microgram of the respective receptor or ligand immunoadhesin. The cells were then washed with 2% FBS/PBS, stained with R-phycoerythrin-conjugated goat anti-human antibody (Jackson Immunoresearch, West Grove, Pa.). Next, the cells were analyzed by FACS. To test the binding of the respective immunoadhesins to the transiently transfected cells, an expression vector (pRK5-CD4; Smith et al., Science, 328:1704-1707 (1987)) for CD4 was co-transfected with PRO175 expression vector (see above). FITC-conjugated anti-CD4 (Pharmingen, San Diego, Calif.) was then used to identify and gate the transfected cell population in the FACS analysis.

TNFR1 immunoadhesin [2] = biological target: T1, TNFR1 immunoadhesin; test: FACS on HUVEC (endogenous PRO175)
Description: (§1) The PRO175 polypeptide was identified in a human umbilical vein endothelial cell (HUVEC) library, and the PRO175 polypeptide transcripts are readily detectable in HUVEC by RT-PCR (data not shown). […] HUVEC were purchased from Cell Systems (Kirkland, Wash.) and grown in a 50:50 mix of Ham=s F 12 and Low Glucose DMEM media containing 10% fetal bovine serum, 2 mM L-glutamine, 10 mM Hepes, and 10 ng/ml basic FGF. Cells were FACS sorted with PBS, PRO364-IgG, TNFR1-IgG or Fas-IgG as a primary antibody and goat anti-human F(ab=)₂ conjugated to phycoerythrin (CalTag, Burlingame, Calif.).

DR5 immunoadhesin = biological target: T5, DR5 immunoadhesin (human, UniProt O14763 56-210, limits assumed); test: co-precipitation with protein A-sepharose, SDS-PAGE, autoradiography
T5 construct: extracellular domain; also called DR5-IgG; Apo-2; not shown: hinge and Fc portion of human IgG; made as described for TNFR1 in Ashkenazi et al. 1991 (IgG1 from)
Description: (§2) The soluble PRO175 ECD molecule was abeled with ¹²⁵I, for testing its ability to interact with the PRO364 immunoadhesin. For comparison, immunoadhesin constructs were also made of the following TNF receptor family members: CD95, DR4, DR5, TNFR1, TNFR2, and Apo-3. CD95, DR4, DR5, TNFR1, TNFR2, and Apo-3 immunoadhesins were prepared by fusing each receptor's ECD to the hinge and Fc portion of human IgG, as described previously for TNFR1 [Ashkenazi et al., Proc. Natl. Acad. Sci., 88:10535-10539 (1.991)]. The respective TNF receptor family members are described (and relevant references cited) in the Background of the Invention section.
(§3) For the co-precipitation assay, each immunoadhesin (5 microgram) was incubated with ¹²⁵I-labeled soluble PRO175 polypeptide (I microgram) for 1 hour at 24° C., followed by protein A-sepharose for 30 minutes on ice. The reaction mixtures were spun down and washed several times in PBS, boiled in SDS-PAGE buffer containing 20 mM dithiothreitol and then resolved by SDS-PAGE and autoradiography.

CD95 immunoadhesin = biological target: B4; test: as above
Description: as §2, §3

TNFR1 immunoadhesin [3] = biological target: T1, TNFR1 immunoadhesin; test: as above
Description: as §2, §3

DR4 immunoadhesin = biological target: T2, DR4 immunoadhesin; test: as above
Description: as §2, §3

Apo-3 immunoadhesin = biological target: T3, Apo-3 immunoadhesin; test: as above
Description: as §2, §3

TNFR2 immunoadhesin = biological target: T4, TNFR2 immunoadhesin; test: as above
Description: as §2, §3

[4] = biological target: B2; test: FACS on HUVEC (endogenous PRO175)
Description: as §1

B1: binds [1].

B2: no binding (TNFR1 immunoadhesin [2]).

B3: no binding (DR5 immunoadhesin); no binding (CD95 immunoadhesin); no binding (TNFR1 immunoadhesin [3]). B3: no binding (DR4 immunoadhesin); no binding (Apo-3 immunoadhesin); no binding (TNFR2 immunoadhesin).

B4: no binding [4].
